This note sets out measurements from patent publication US20130171059A1 (AbbVie / Abbott, published 2013).

Assay [1] has as its target T1, Recombinant Human TNF-α/TNFSF1A (human, UniProt P01375 77-233). Briefly: cell-based or functional assay.
Assay [2] has as its target T2, Recombinant Human β-NGF (human, UniProt P01138 122-239, limits assumed). Briefly: cell-based or functional assay.
The target of assay [3] is T2, Recombinant Human β-NGF. Briefly: SPR (Biacore). On the procedure:
(§1) The BIACORE assay (Biacore, Inc, Piscataway, N.J.) determined the affinity of antibodies or DVD-Ig proteins with kinetic measurements of on-rate and off-rate constants. Binding of antibodies or DVD-Ig proteins to a target antigen (for example, a purified recombinant target antigen) was determined by surface plasmon resonance-based measurements with a Biacore® 1000 or 3000 instrument (Biacore® AB, Uppsala, Sweden) using running HBS-EP (10 mM HEPES [pH 7.4], 150 mM NaCl, 3 mM EDTA, and 0.005% surfactant P20) at 25° C. All chemicals were obtained from Biacore® AB (Uppsala, Sweden) or otherwise from a different source as described in the text. For example, approximately 5000 RU of goat anti-mouse IgG, (Fcγ), fragment specific polyclonal antibody (Pierce Biotechnology Inc, Rockford, Ill.) diluted in 10 mM sodium acetate (pH 4.5) was directly immobilized across a CM5 research grade biosensor chip using a standard amine coupling kit according to manufacturer's instructions and procedures at 25 μg/ml. Unreacted moieties on the biosensor surface were blocked with ethanolamine. Modified carboxymethyl dextran surface in flowcell 2 and 4 was used as a reaction surface. Unmodified carboxymethyl dextran without goat anti-mouse IgG in flow cell 1 and 3 was used as the reference surface. For kinetic analysis, rate equations derived from the 1:1 Langmuir binding model were fitted simultaneously to association and dissociation phases of all eight injections (using global fit analysis) with the use of Biaevaluation 4.0.1 software. Purified antibodies or DVD-Ig proteins were diluted in HEPES-buffered saline for capture across goat anti-mouse IgG specific reaction surfaces. Antibodies or DVD-Ig proteins to be captured as a ligand (25 μg/ml) were injected over reaction matrices at a flow rate of 5 μl/minute. The association and dissociation rate constants, kₒₙ (M⁻¹s⁻¹) and koff (s⁻¹) were determined under a continuous flow rate of 25 μl/minute. Rate constants were derived by making kinetic binding measurements at different antigen concentrations ranging from 10-200 nM. The equilibrium dissociation constant (M) of the reaction between antibodies or DVD-Ig proteins and the target antigen was then calculated from the kinetic rate constants by the following formula: KD=koff/kₒₙ. Binding was recorded as a function of time and kinetic rate constants were calculated.
A general note: Surface plasmon resonance follows binding to a sensor surface in real time, without labels.

The target in assay [4] is T1, Recombinant Human TNF-α/TNFSF1A. Briefly: SPR (Biacore). On the procedure: as §1
In assay [5] the target is T3, Recombinant Human SOST (human, UniProt Q9BQB4 24-213).
T3 sequence (looked up): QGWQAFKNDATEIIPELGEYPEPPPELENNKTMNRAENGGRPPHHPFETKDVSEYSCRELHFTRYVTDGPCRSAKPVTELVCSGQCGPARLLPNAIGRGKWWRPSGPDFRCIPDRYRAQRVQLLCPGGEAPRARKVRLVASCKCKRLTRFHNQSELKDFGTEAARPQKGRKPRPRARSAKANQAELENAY
The assay can be described thus: cell-based or functional assay.

Assay [6] deals with T3, Recombinant Human SOST. Briefly: SPR (Biacore). On the procedure: as §1
Assay [7] deals with T2, Recombinant Human β-NGF. The assay can be described thus: SPR (Biacore); antibody captured on anti-IgG Fc chip, antigen 10-200 nM in flow, 25 C, HBS-EP pH 7.4; koff 6.80E-06 is near the assay floor of 10^-6 s^-1. Here is the method: The BIACORE assay (Biacore, Inc, Piscataway, N.J.) determined the affinity of antibodies or DVD-Ig proteins with kinetic measurements of on-rate and off-rate constants. Binding of antibodies or DVD-Ig proteins to a target antigen (for example, a purified recombinant target antigen) was determined by surface plasmon resonance-based measurements with a Biacore® 1000 or 3000 instrument (Biacore® AB, Uppsala, Sweden) using running HBS-EP (10 mM HEPES [pH 7.4], 150 mM NaCl, 3 mM EDTA, and 0.005% surfactant P20) at 25° C. All chemicals were obtained from Biacore® AB (Uppsala, Sweden) or otherwise from a different source as described in the text. […] The association and dissociation rate constants, kₒₙ (M⁻¹s⁻¹) and koff (s⁻¹) were determined under a continuous flow rate of 25 μl/minute. […] The equilibrium dissociation constant (M) of the reaction between antibodies or DVD-Ig proteins and the target antigen was then calculated from the kinetic rate constants by the following formula: KD=koff/kₒₙ. Binding was recorded as a function of time and kinetic rate constants were calculated.

T1 sequence (P01375 77-233 limits assumed): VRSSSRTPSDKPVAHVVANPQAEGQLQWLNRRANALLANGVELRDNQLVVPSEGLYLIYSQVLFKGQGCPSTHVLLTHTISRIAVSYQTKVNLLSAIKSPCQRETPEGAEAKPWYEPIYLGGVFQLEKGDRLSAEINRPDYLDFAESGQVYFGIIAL
T2 sequence (P01138 122-239 limits assumed): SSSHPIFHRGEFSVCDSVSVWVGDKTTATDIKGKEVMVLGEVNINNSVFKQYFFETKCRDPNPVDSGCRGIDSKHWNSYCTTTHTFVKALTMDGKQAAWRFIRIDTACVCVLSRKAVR

B1: DVD1984 (bispecific antibody)
DVD-H: DIQMTQSPSSLSASVGDRVTITCRASQGIRIDLGWYQQKPGKAPKRLIYAASTLQSGVPSRFSGSGSGTEFIFTISSLQPEDFASYYCLQHKSYPLTFGGGTKVEIKRTVAAPQVQLQESGPGLVKPSETLSLTCTVSGFSLIGYDLNWIRQPPGKGLEWIGIIWGDGTTDYNSAVKSRVTISKDTSKNQFSLKLSSVTAADTAVYYCARGGYWYATSYYFDYWGQGTLVTVSS
DVD-L: QVQLVESGGGVVQPGRSLRLSCAASGFTFSSYDMHWVRQAPGKGLEWVAVIWSDGSIKYYADSVKGRFTISRDNSKNTLYLQMNSLRAEDTAVYYCAREVESAMGGFYYNGMDVWGQGTTVTVSSASTKGPDIQMTQSPSSLSASVGDRVTITCRASQSISNNLNWYQQKPGKAPKLLIYYTSRFHSGVPSRFSGSGSGTDFTFTISSLQPEDIATYYCQQEHTLPYTFGQGTKLEIK
notes: VH/VL crossover DVD-Ig; also called DVD1984H + DVD1984L; copies: 2 + 2
For B1, in assay [1], the “N-Terminal VD TNFa Neutralization Assay IC50 (L929 cells)” value turned out to be 0.017 nM. In addition, in the assay with Recombinant Human β-NGF [2], the “C-Terminal VD NGF Neutralization Assay IC50 (TF-1 cell proliferation)” value was 0.593 nM. Moreover, in the assay with Recombinant Human β-NGF [3], the Kd was found to be 0.096 nM, the koff worked out at 4.3e-05 s⁻¹ and the kon was 450000 M⁻¹ s⁻¹. In assay [4], the dissociation constant (Kd) is 0.015 nM, the koff was 3.7e-05 s⁻¹ and the kon was determined as 2.5e+06 M⁻¹ s⁻¹.

B2: DVD1961 (bispecific antibody)
heavy: DIQMTQSPSSLSASVGDRVTITCRASQSISNNLNWYQQKPGKAPKLLIYYTSRFHSGVPSRFSGSGSGTDFTFTISSLQPEDIATYYCQQEHTLPYTFGQGTKLEIKRTVAAPQVQLKESGPGLVAPSQSLSITCTVSGFSLTDYGVNWVRQPPGKGLEWLGMIWGDGSTDYDSTLKSRLSISKDNSKSQIFLKMNSLQTDDTARYYCAREWHHGPVAYWGQGTLVTVSA
light: QVQLQESGPGLVKPSETLSLTCTVSGFSLIGYDLNWIRQPPGKGLEWIGIIWGDGTTDYNSAVKSRVTISKDTSKNQFSLKLSSVTAADTAVYYCARGGYWYATSYYFDYWGQGTLVTVSSASTKGPDIVMTQSHKFMSTTVGDRVSITCKASQAVSSAVAWYQQKPGQSPKLLIYWASTRHTGVPDRFTGSGSVTDFTLTIHNLQAEDLALYYCQQHYSTPFTFGSGTKLEIK
notes: VH/VL crossover DVD-Ig; also called DVD1961H + DVD1961L
With B2, the “C-Terminal VD TNFα Neutralization Assay IC50 (L929 cells)” value in assay [1] stood at 4.02 nM. Also, the “N-Terminal VD NGF Neutralization Assay IC50 (TF-1 cell proliferation)” value in the assay with Recombinant Human β-NGF [2] was 0.132 nM. For the same molecule, in the assay with Recombinant Human β-NGF [3], the Kd was less than 0.00031 nM, the koff was less than 1e-06 s⁻¹ and the kon turned out to be 3.2e+06 M⁻¹ s⁻¹. Also, in assay [4], the Kd was 0.58 nM, the koff amounted to 9.9e-05 s⁻¹ and the kon worked out at 170000 M⁻¹ s⁻¹.

B3: DVD1991 (bispecific antibody)
DVD-H: DVQMIQSPSSLSASLGDIVTMTCQASQGTSINLNWFQQKPGKAPKLLIYGSSNLEDGVPSRFSGSRYGTDFTLTISSLEDEDLATYFCLQHSYLPYTFGGGTKLEIKRTVAAPEVQLVESGGGLIQPGGSLRLSCAASGFTVSRNYMSWVRQAPGKGLEWVSVIYSGDRTYYADSVKGRFTISRDNSKNTLYLQMNSLRAEDTAVYYCARGEGGFDYWGQGTLVTVSS
DVD-L: EVQLQQSGPELVTPGASVKISCKASGYTFTDHYMSWVKQSHGKSLEWIGDINPYSGETTYNQKFKGTATLTVDKSSSIAYMEIRGLTSEDSAVYYCARDDYDASPFAYWGQGTLVTVSAASTKGPEIVMTQSPATLSVSPGERATLSCRASQSVSSNLAWYQQKPGQAPRLLIHGASIRATGLPARFSGSGSGTEFTLTISSLQSEDFAVYYCQQYNYWWTFGQGTKVEIK
notes: VH/VL crossover DVD-Ig; also called DVD1991H + DVD1991L; copies: 2 + 2
B3: the “C-Terminal VD TNFα Neutralization Assay IC50 (L929 cells)” value in assay [1] was determined as 0.401 nM. Also, the “N-Terminal VD SOST Neutralization Assay IC50 (Wnt-1/luciferase HEK clone #14)” value in the assay with Recombinant Human SOST [5] came out at 36 nM. In the assay with Recombinant Human SOST [6], the Kd was 0.017 nM, the koff came out at 0.00025 s⁻¹ and the kon was determined as 1.5e+07 M⁻¹ s⁻¹. Also, in assay [4], the Kd was found to be 0.66 nM, the koff is 7.1e-05 s⁻¹ and the kon came out at 110000 M⁻¹ s⁻¹.

B4: AB020 (antibody, V domains shown)
VH: QVQLQESGPGLVKPSETLSLTCTVSGFSLIGYDLNWIRQPPGKGLEWIGIIWGDGTTDYNSAVKSRVTISKDTSKNQFSLKLSSVTAADTAVYYCARGGYWYATSYYFDYWGQGTLVTVSS
VL: DIQMTQSPSSLSASVGDRVTITCRASQSISNNLNWYQQKPGKAPKLLIYYTSRFHSGVPSRFSGSGSGTDFTFTISSLQPEDIATYYCQQEHTLPYTFGQGTKLEIKR
notes: Parent antibody; also called NGF parent antibody
As to B4, in the assay with Recombinant Human β-NGF [7], the Kd was 0.0027 nM. For the same molecule, in the assay with Recombinant Human β-NGF [2], the “NGF Neutralization Assay IC50 (TF-1 cell proliferation)” value was 0.008 nM. Also, in the assay with Recombinant Human β-NGF [3], the koff was 6.8e-06 s⁻¹ and the kon amounted to 2.5e+06 M⁻¹ s⁻¹.

B5: DVD1960 (bispecific antibody, not shown: a dimerising Fc or GST)
heavy: DIVMTQSHKFMSTTVGDRVSITCKASQAVSSAVAWYQQKPGQSPKLLIYWASTRHTGVPDRFTGSGSVTDFTLTIHNLQAEDLALYYCQQHYSTPFTFGSGTKLEIKRTVAAPQVQLQESGPGLVKPSETLSLTCTVSGFSLIGYDLNWIRQPPGKGLEWIGIIWGDGTTDYNSAVKSRVTISKDTSKNQFSLKLSSVTAADTAVYYCARGGYWYATSYYFDYWGQGTLVTVSS
light: QVQLKESGPGLVAPSQSLSITCTVSGFSLTDYGVNWVRQPPGKGLEWLGMIWGDGSTDYDSTLKSRLSISKDNSKSQIFLKMNSLQTDDTARYYCAREWHHGPVAYWGQGTLVTVSAASTKGPDIQMTQSPSSLSASVGDRVTITCRASQSISNNLNWYQQKPGKAPKLLIYYTSRFHSGVPSRFSGSGSGTDFTFTISSLQPEDIATYYCQQEHTLPYTFGQGTKLEIKR
Consider B5, for which the N-Terminal VD TNFa Neutralization Assay IC50 (L929 cells) in assay [1] was 0.086 nM. The C-Terminal VD NGF Neutralization Assay IC50 (TF-1 cell proliferation) with Recombinant Human β-NGF [2] stood at 3.12 nM.

B6: DVD1990 (bispecific antibody)
DVD-H: EIVMTQSPATLSVSPGERATLSCRASQSVSSNLAWYQQKPGQAPRLLIHGASIRATGLPARFSGSGSGTEFTLTISSLQSEDFAVYYCQQYNYWWTFGQGTKVEIKRTVAAPEVQLQQSGPELVTPGASVKISCKASGYTFTDHYMSWVKQSHGKSLEWIGDINPYSGETTYNQKFKGTATLTVDKSSSIAYMEIRGLTSEDSAVYYCARDDYDASPFAYWGQGTLVTVSA
DVD-L: EVQLVESGGGLIQPGGSLRLSCAASGFTVSRNYMSWVRQAPGKGLEWVSVIYSGDRTYYADSVKGRFTISRDNSKNTLYLQMNSLRAEDTAVYYCARGEGGFDYWGQGTLVTVSSASTKGPDVQMIQSPSSLSASLGDIVTMTCQASQGTSINLNWFQQKPGKAPKLLIYGSSNLEDGVPSRFSGSRYGTDFTLTISSLEDEDLATYFCLQHSYLPYTFGGGTKLEIK
notes: VH/VL crossover DVD-Ig; also called DVD1990H + DVD1990L; copies: 2 + 2
With B6, the “N-Terminal VD TNFa Neutralization Assay IC50 (L929 cells)” value in assay [1] was found to be 0.408 nM. For the same molecule, the “C-Terminal VD SOST Neutralization Assay IC50 (Wnt-1/luciferase HEK clone #14)” value in the assay with Recombinant Human SOST [5] was greater than 250 nM. Moreover, in the assay with Recombinant Human SOST [6], the Kd came to 0.33 nM, the koff stood at 0.00058 s⁻¹ and the kon is 1.8e+06 M⁻¹ s⁻¹. For the same molecule, in assay [4], the Kd turned out to be 0.016 nM, the koff worked out at 4.5e-05 s⁻¹ and the kon was found to be 2.8e+06 M⁻¹ s⁻¹.

For orientation: Kd means a measure of binding affinity in units of concentration. One may read the koff as the rate constant with which the complex falls apart. One may read the kon as the rate constant with which the complex forms.
